# Residue numbers refer to the chain shown, from its start.
# T1: human BCMA (human, UniProt Q02223 1-184)
# T1 construct: whole, on cells; also called hBCMA; TNFRSF17
# T1 sequence (looked up): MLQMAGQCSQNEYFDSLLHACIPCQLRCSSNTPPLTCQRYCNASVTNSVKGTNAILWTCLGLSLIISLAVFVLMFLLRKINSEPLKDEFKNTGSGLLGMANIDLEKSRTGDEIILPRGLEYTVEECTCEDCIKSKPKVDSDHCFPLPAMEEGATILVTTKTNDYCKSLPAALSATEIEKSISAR
# B1: PR001991 (bispecific antibody, human IgG1, kappa, L234A L235A)
# chain 1: EVQLLESGGGLVQPGGSLRLSCAASGFTFNTYAMNWVRQAPGKGLEWVSRIRSKYNNYATYYADSVKDRFTISRDDSKSTLYLQMNSLRAEDTAVYYCVRHGNFGNSYVSWFAYWGQGTLVTVSSRTVAAPSVFIFPPSDEQLKSGTASVVCLLNNFYPREAKVQWKVDNALQSGNSQESVTEQDSKDSTYSLSSTLTLSKADYEKHKVYACEVTHQGLSSPVTKSFNRGEC
# chain 2: QAVVTQEPSLTVSPGGTVTLTCRSSTGAVTTSNYANWVQQKPGQAPRGLIGGTNKRAPWTPARFSGSLLGDKAALTLLGAQPEDEAEYFCALWYSNLWVFGGGTKLTVLSSASTKGPSVFPLAPSSKSTSGGTAALGCLVKDYFPEPVTVSWNSGALTSGVHTFPAVLQSSGLYSLSSVVTVPSSSLGTQTYICNVNHKPSNTKVDKKVEPKSCDKTHTCPPCPAPEAAGGPSVFLFPPKPKDTLMISRTPEVTCVVVDVSHEDPEVKFNWYVDGVEVHNAKTKPREEQYNSTYRVVSVLTVLHQDWLNGKEYKCKVSNKALGAPIEKTISKAKGQPREPQVYTLPPCREEMTKNQVSLWCLVKGFYPSDIAVEWESNGQPENNYKTTPPVLDSDGSFFLYSKLTVDKSRWQQGNVFSCSVMHEALHNHYTQKSLSLSPGK
# chain 3: EVQLLESGGGLVQPGGSLRLSCAASGFTFSSYAMIWVRQAPGKGLEWVSGISESGGSTYYADSVKGRFTISRDNSKNTLYLQMNSLRAEDTAVYFCVKDLDDILTGYYKDYWGQGTLVTVSSASEPKSSDKTHTCPPCPAPEAAGGPSVFLFPPKPKDTLMISRTPEVTCVVVDVSHEDPEVKFNWYVDGVEVHNAKTKPREEQYNSTYRVVSVLTVLHQDWLNGKEYKCKVSNKALGAPIEKTISKAKGQPREPQVCTLPPSREEMTKNQVSLSCAVKGFYPSDIAVEWESNGQPENNYKTTPPVLDSDGSFFLVSKLTVDKSRWQQGNVFSCSVMHEALHNHYTQKSLSLSPGK
# notes: CD3 of PR000511, BCMA VH of PR000940; IgG1 knob/hole, AAG
# B2: PR001992 (bispecific antibody, human IgG1, kappa, L234A L235A)
# chain 1: B1 chain 1
# chain 2: B1 chain 2
# chain 3: EVQLVETGGGLIQPGGSLRLSCAASGFPVSSNYMSWVRQAPGKGLEWVSVIFSGGRTYYADSVKGRFTISRDNSKNTLYLQMNSLRAEDTAVYYCARRNWIDGRDAFDIWGQGTMVTVSSASEPKSSDKTHTCPPCPAPEAAGGPSVFLFPPKPKDTLMISRTPEVTCVVVDVSHEDPEVKFNWYVDGVEVHNAKTKPREEQYNSTYRVVSVLTVLHQDWLNGKEYKCKVSNKALGAPIEKTISKAKGQPREPQVCTLPPSREEMTKNQVSLSCAVKGFYPSDIAVEWESNGQPENNYKTTPPVLDSDGSFFLVSKLTVDKSRWQQGNVFSCSVMHEALHNHYTQKSLSLSPGK
# notes: BCMAxCD3, Fab(cross VH/VL)-Fc-VH (structure 12); CD3 of PR000511, BCMA VH of PR000943; IgG1 knob/hole, AAG
# B3: PR001993 (bispecific antibody, human IgG1, kappa, L234A L235A)
# chain 1: B1 chain 1
# chain 2: B1 chain 2
# chain 3: B2 chain 3 with P28T, S35T, R56S, N99I, W100A, I101V, D102A, R104H, A106V
# notes: BCMAxCD3, Fab(cross VH/VL)-Fc-VH (structure 12); CD3 of PR000511, BCMA VH of PR001035; IgG1 knob/hole, AAG
# B4: PR003867 (bispecific antibody, human IgG1, lambda, L234A L235A)
# light: QAVVTQEPSLTVSPGGTVTLTCRSSTGAVTTSNYANWVQQKPGQAPRGLIGGTNKRAPWTPARFSGSLLGDKAALTLLGAQPEDEAEYFCALWYSNLWVFGGGTKLTVLGQPKAAPSVTLFPPSSEELQANKATLVCLISDFYPGAVTVAWKADSSPVKAGVETTTPSKQSNNKYAASSYLSLTPEQWKSHRSYSCQVTHEGSTVEKTVAPTECS
# heavy: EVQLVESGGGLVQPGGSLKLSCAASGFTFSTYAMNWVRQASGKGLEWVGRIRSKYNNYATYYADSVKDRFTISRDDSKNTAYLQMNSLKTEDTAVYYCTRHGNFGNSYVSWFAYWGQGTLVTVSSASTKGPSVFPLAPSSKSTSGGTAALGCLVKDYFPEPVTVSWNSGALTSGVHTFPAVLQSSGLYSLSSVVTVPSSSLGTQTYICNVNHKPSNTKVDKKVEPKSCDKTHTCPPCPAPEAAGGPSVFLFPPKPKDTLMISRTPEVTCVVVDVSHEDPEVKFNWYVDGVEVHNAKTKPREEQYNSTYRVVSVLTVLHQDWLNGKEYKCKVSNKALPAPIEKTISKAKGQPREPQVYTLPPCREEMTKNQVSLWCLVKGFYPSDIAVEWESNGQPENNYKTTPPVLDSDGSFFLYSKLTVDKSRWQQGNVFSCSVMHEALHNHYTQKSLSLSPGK
# chain: EVQLVETGGGLIQPGGSLRLSCAASGFTVSDNYMTWVRQAPGKGLEWVSVIFSGGKTYYADSVKGRFTISRDNAKNTLYLQMNSLRAEDTALYYCARRNYDDTRGTDVFDIWGQGTMVTVSSASEPKSSDKTHTCPPCPAPEAAGGPSVFLFPPKPKDTLMISRTPEVTCVVVDVSHEDPEVKFNWYVDGVEVHNAKTKPREEQYNSTYRVVSVLTVLHQDWLNGKEYKCKVSNKALPAPIEKTISKAKGQPREPQVCTLPPSREEMTKNQVSLSCAVKGFYPSDIAVEWESNGQPENNYKTTPPVLDSDGSFFLVSKLTVDKSRWQQGNVFSCSVMHEALHNHYTQKSLSLSPGK
# notes: BCMAxCD3, Fab-Fc-VH (structure 11); CD3 Fab of PR003886, BCMA VH of PR004559; IgG1 knob/hole, LALA
# B5: PR001994 (bispecific antibody, human IgG1, kappa, L234A L235A)
# chain 1: B1 chain 1
# chain 2: B1 chain 2
# chain 3: B4 chain with K56N, P238G
# notes: BCMAxCD3, Fab(cross VH/VL)-Fc-VH (structure 12); CD3 of PR000511, BCMA VH of PR001046; IgG1 knob/hole, AAG
# B6: PR003868 (bispecific antibody, human IgG1, lambda, L234A L235A)
# light: B4 light
# heavy: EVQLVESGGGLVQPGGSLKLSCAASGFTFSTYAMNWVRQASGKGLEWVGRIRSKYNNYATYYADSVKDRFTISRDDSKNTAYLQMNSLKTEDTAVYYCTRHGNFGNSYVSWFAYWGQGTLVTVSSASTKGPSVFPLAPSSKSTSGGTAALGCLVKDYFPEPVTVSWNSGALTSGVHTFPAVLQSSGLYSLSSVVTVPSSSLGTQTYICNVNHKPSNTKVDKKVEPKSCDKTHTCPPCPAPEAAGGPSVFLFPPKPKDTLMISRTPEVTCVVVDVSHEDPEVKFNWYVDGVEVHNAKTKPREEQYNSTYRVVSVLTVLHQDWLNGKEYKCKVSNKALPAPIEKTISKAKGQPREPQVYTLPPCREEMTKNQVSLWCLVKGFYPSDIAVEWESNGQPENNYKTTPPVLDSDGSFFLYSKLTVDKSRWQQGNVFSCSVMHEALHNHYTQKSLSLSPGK
# chain: B4 chain with S30Y, Y59V, D102Q
# notes: BCMAxCD3, Fab-Fc-VH (structure 11); CD3 Fab of PR003886, BCMA VH of PR004563; IgG1 knob/hole, LALA
# B7: PR003877 (bispecific antibody, human IgG1, lambda, L234A L235A)
# light: B4 light
# heavy: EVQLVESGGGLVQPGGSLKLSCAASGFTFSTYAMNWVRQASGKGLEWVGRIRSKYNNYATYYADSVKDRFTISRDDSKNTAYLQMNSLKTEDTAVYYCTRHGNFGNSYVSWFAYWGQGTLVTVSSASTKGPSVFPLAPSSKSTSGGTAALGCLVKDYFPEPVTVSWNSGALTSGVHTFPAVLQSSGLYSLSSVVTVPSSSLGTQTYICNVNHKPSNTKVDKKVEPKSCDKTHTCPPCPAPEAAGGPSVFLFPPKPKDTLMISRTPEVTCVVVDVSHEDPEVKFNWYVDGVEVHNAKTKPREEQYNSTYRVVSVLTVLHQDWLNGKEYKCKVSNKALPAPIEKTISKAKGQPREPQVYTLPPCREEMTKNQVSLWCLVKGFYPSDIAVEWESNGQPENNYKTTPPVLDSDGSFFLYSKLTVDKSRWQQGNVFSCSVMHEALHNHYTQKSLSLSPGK
# chain: B4 chain with N32S, Y59V
# notes: BCMAxCD3, Fab-Fc-VH (structure 11); CD3 Fab of PR003886, BCMA VH of PR004572; IgG1 knob/hole, LALA
# B8: PR003878 (bispecific antibody, human IgG1, lambda, L234A L235A)
# light: B4 light
# heavy: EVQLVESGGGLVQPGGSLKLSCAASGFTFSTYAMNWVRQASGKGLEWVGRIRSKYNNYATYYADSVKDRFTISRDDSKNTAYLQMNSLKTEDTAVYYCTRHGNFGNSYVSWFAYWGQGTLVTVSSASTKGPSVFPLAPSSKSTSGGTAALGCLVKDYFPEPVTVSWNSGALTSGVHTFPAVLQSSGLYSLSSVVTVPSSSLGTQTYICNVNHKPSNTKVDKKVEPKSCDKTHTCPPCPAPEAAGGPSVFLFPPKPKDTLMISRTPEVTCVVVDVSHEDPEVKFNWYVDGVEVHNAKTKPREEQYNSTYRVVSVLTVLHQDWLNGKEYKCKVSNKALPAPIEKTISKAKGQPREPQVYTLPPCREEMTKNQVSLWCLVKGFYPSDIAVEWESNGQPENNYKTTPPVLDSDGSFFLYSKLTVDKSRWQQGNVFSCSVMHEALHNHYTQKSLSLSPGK
# chain: B4 chain with N32S
# notes: BCMAxCD3, Fab-Fc-VH (structure 11); CD3 Fab of PR003886, BCMA VH of PR004573; IgG1 knob/hole, LALA
# B9: PR003875 (bispecific antibody, human IgG1, lambda, L234A L235A)
# light: B4 light
# heavy: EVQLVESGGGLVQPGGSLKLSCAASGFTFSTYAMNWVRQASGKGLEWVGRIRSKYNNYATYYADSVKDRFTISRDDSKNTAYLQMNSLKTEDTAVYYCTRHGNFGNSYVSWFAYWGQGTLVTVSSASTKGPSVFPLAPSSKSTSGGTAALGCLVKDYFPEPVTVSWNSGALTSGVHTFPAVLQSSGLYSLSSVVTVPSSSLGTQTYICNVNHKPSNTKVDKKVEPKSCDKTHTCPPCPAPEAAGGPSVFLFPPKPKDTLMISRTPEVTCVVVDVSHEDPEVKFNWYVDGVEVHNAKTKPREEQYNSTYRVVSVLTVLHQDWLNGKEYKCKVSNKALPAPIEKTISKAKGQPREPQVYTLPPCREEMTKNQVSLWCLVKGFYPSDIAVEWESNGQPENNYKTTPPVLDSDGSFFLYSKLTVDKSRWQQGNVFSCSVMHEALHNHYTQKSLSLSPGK
# chain: B4 chain with N32A, K56R, D102Q
# notes: BCMAxCD3, Fab-Fc-VH (structure 11); CD3 Fab of PR003886, BCMA VH of PR004570; IgG1 knob/hole, LALA
# B10: PR003873 (bispecific antibody, human IgG1, lambda, L234A L235A)
# light: B4 light
# heavy: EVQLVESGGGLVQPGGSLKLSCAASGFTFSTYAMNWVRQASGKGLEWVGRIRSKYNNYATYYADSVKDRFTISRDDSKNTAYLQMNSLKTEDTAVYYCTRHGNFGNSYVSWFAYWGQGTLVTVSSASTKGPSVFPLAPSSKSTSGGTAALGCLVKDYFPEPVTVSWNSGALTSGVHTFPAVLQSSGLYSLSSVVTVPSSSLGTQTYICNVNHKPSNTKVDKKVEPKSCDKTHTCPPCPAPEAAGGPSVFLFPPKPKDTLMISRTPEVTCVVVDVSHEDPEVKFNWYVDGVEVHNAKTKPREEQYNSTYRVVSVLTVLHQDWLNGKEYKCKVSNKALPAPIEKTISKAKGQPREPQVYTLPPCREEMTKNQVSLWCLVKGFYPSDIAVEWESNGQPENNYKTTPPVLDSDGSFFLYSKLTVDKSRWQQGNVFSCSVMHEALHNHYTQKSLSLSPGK
# chain: B4 chain with N32A, K56R, Y59V
# notes: BCMAxCD3, Fab-Fc-VH (structure 11); CD3 Fab of PR003886, BCMA VH of PR004568; IgG1 knob/hole, LALA
# B11: PR003881 (bispecific antibody, human IgG1, lambda, L234A L235A)
# light: B4 light
# heavy: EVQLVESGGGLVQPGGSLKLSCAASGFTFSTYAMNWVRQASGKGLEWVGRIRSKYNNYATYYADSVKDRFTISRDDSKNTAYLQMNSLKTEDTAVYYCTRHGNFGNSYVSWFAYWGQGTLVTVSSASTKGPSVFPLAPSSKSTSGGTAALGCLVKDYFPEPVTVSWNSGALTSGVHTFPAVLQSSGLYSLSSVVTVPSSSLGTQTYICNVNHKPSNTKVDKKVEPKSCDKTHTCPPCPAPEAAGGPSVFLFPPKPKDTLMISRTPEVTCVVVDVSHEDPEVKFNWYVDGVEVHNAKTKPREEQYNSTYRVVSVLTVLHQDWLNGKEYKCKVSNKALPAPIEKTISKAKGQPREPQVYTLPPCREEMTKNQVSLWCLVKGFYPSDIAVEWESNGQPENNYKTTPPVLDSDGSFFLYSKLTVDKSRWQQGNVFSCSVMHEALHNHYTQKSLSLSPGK
# chain: B4 chain with N32S, K56N, D102Q, R104L
# notes: BCMAxCD3, Fab-Fc-VH (structure 11); CD3 Fab of PR003886, BCMA VH of PR004561; IgG1 knob/hole, LALA
# B12: PR003871 (bispecific antibody, human IgG1, lambda, L234A L235A)
# light: B4 light
# heavy: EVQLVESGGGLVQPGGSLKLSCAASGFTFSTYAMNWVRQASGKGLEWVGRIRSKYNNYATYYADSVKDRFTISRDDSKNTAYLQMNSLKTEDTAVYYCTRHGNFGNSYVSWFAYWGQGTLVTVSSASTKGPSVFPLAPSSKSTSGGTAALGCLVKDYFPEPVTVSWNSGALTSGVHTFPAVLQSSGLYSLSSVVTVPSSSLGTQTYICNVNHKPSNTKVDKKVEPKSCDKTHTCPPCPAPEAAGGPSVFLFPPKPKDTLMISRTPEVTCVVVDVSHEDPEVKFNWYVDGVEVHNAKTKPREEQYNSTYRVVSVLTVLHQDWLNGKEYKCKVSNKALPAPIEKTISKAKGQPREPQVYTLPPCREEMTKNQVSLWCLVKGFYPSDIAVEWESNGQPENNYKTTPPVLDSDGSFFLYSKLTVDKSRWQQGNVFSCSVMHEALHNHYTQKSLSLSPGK
# chain: B4 chain with N32S, K56R, A60S
# notes: BCMAxCD3, Fab-Fc-VH (structure 11); CD3 Fab of PR003886, BCMA VH of PR004566; IgG1 knob/hole, LALA
# Molecular target: T1, human BCMA
# Test: FACS on NCI-H929 cells
# Description: This example is intended to investigate the binding activity of anti-BCMA HCAb antibodies to human and cynomolgus monkey BCMAs. […] Specifically, HEK293T/hBCMA cells and HEK293T/cyno BCMA cells were digested and resuspended in a DMEM complete medium. In addition, NCI-H929 cell suspension was collected. The density of each of the three cells was adjusted to 1×10⁶ cells/mL. […] The cells were incubated at 4° C. for 1 h away from light. Thereafter, the cells in each well were rinsed twice with 100 μL of pre-cooled PBS, and centrifuged at 500 g at 4° C. for 5 min, and then the supernatant was discarded. […] The cells in each well were rinsed twice with 100 μL of pre-cooled PBS, and centrifuged at 500 g at 4° C. for 5 min, and then the supernatant was discarded. Finally, the cells in each well were resuspended in 200 μL of pre-cooled PBS. Fluorescence signal values were read using a BD FACS CANTOII flow cytometer or an ACEA NovoCyte flow cytometer, and the data were processed and analyzed using FlowJo v10 (FlowJo, LLC) software. The data were processed and analyzed by plotting using GraphPad Prism 8 software, and binding curves of the antibodies to target cells, EC₅₀ values and other parameters were obtained through four-parameter nonlinear fitting.
Maximum MFI,EC50 [nM],Binder
1980,–,B1
3210,–,B2
1290,–,B3
8590,4.6,B4
3430,–,B5
17400,7.3,B6
11100,1.7,B7
9240,1.5,B8
9840,1.2,B9
10200,1.3,B10
10300,2.6,B11
10600,2,B12

# Source: patent US20230322953A1 (HARBOUR BIOMED SHANGHAI, published 2023)
